The results in this text go back to patent US20240182572A1 (OSE IMMUNOTHERAPEUTICS, published 2024).

Assay [1] concerns the target T1, Recombinant hPD1 (Sino Biologicals, reference 10377-H08H) (human, UniProt Q15116 25-167).
T1 construct: Bought recombinant protein; also called Human recombinant PD-1 (rPD1) protein; human PD-1
As to the kind of experiment: ELISA, recombinant hPD1 immobilized, detection with peroxidase-labeled anti-human IgG. Here is the method:
Recombinant hPD1 (Sino Biologicals, Beijing, China; reference 10377-H08H) was immobilized on plastic at […] in carbonate buffer (pH 9.2) and purified antibody was added to measure binding.
For activity ELISA assay, recombinant hPD1 (Sino Biologicals, Beijing, China; reference 10377-H08H) was immobilized on plastic at 0.5 μg/ml in carbonate buffer (pH 9.2) and purified antibody were added to measure binding.
On the technique in general: An ELISA detects its analyte on a solid surface through an enzyme-linked reagent.

The target in assay [2] is T2, biotinylated Human PD1 (AcroBiosystems, reference EP-101) (human, UniProt Q15116 25-167, limits assumed, biotinylated (site not stated)).
T2 construct: Kit reagent; also called Biotin-PD-1Fc; not shown: Fc part, named only as 'Biotin-PD-1Fc'
In words: competitive ELISA: hPDL1 immobilized, biotinylated human PD1 at 0.66 µg/ml mixed with the antibody, streptavidin detection. Here is the method:
To measure antagonist activity of the bifunctional antibody, a competitive ELISA assay was performed by PD-1:PD-L1 Inhibitor Screening ELISA Assay Pair (AcroBiosystems; USA; reference EP-101). In this assay, recombinant hPDL1 was immobilized on plastic at 2 μg/ml in PBS pH 7.4 buffer.
Competitive ELISA assay was performed by PD-1:PD-L1 Inhibitor Screening ELISA Assay Pair (Acro Biosystems; USA; reference EP-101). In this assay, recombinant hPDL1 was immobilized on plastic at 2 μg/ml in PBS pH 7.4 buffer.

The EC50 is the concentration giving half of the maximal effect. By IC50 is commonly meant the concentration at which inhibition is half-maximal. Higher therefore signals a need for much substance.

T2 sequence (Q15116 25-167 limits assumed): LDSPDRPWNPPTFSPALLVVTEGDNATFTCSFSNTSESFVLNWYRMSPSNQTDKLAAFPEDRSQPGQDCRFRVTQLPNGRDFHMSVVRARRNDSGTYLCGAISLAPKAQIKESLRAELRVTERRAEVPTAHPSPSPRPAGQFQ
T1 sequence (Q15116 25-167 limits assumed): as above

B1: anti PD-1*1/SIRPg*1 (bispecific antibody, human IgG1, kappa, N297A)
chain: DKTHTCPPCPAPELLGGPSVFLFPPKPKDTLMISRTPEVTCVVVDVSHEDPEVKFNWYVDGVEVHNAKTKPREEQYASTYRVVSVLTVLHQDWLNGKEYKCKVSNKALPAPIEKTISKAKGQPREPQVYTLPPCRDELTKNQVSLWCLVKGFYPSDIAVEWESNGQPENNYKTTPPVLDSDGSFFLYSKLTVDKSRWQQGNVFSCSVMHEALHNHYTQKSLSLSPGK
heavy: not shown
light: DVVMTQSPLSLPVTLGQPASISCRSSQSLVHANTNTYLEWYQQRPGQSPRLLIYKVSNRFSGVPDRFSGSGSGTDFTLKISRVEAEDVGVYYCFQGTHVPNTFGQGTKLEIKRTVAAPSVFIFPPSDEQLKSGTASVVCLLNNFYPREAKVQWKVDNALQSGNSQESVTEQDSKDSTYSLSSTLTLSKADYEKHKVYACEVTHQGLSSPVTKSFNRGEC
notes: IgG1 N298A isotype, knob-into-hole; also called anti-PD-1*1/SIRP*1; Anti PD-1*1 SIRP*1
In the case of B1, in assay [1], the EC50 was found to be 0.33 nM. In assay [2], the half-inhibitory concentration (IC50) came to 6.9 nM.
